Common to all, as to assay: SPR; Biacore T200; ICAM-1-Fc proteins captured on Protein A on a CM5 chip (1108 ± 108 RU); DBLβ domains flowed as twofold dilution series 1000-7.81 nM at 30 µl/min, 240 s association, 600 s dissociation; 10 mM HEPES pH 7.2, 250 mM NaCl, 0.05% Tween-20; global 1:1 model; 1 mg/ml ssDNA added to BC12a DBLβ
For orientation: Surface plasmon resonance follows binding to a sensor surface in real time, without labels.

Assay [1] concerns the target ICAM-1 Kilifi (K29M) Fc fusion protein (UniProt P05362).
The target in assay [2] is ICAM-1 L42A mutant Fc fusion protein (UniProt P05362).
Assay [3] concerns the target ICAM-1 L44A mutant Fc fusion protein (UniProt P05362).
The target of assay [4] is ICAM-1 S22A mutant Fc fusion protein (UniProt P05362).
The target in assay [5] is ICAM-1 domains 1-5 Fc fusion protein (reference, wild type) (UniProt P05362).

The term Kd denotes the equilibrium constant for the complex coming apart. In general, koff refers to a measure of how fast the partners let go of each other. The term kon denotes the rate constant with which the complex forms. With “IT4var13 DBLβ domain (from UniProt A3R6S0 1-3274) (domain or fragment)”, the % ICAM-1^D1D5 binding in assay [1] was 8.9%; in assay [2], 3.1%; in assay [3], 10%; in assay [4], 94.5%. The Kd was 9.82 nM in assay [4] and 3.45 nM in assay [5]. Also, the koff in assay [5] stood at 0.000125 s⁻¹. In assay [5], this substance displayed a kon of 36100 M⁻¹ s⁻¹.
“BC12a DBLβ domain (PfEMP1 of the dominantly expressed var gene of isolate BC12) (domain or fragment)”: in assay [5], the Kd came out at 197 nM, the koff was found to be 0.000944 s⁻¹ and the on-rate (kon) is 4800 M⁻¹ s⁻¹.
In the case of “J1a DBLβ domain (PfEMP1 of the dominantly expressed var gene of isolate J1) (domain or fragment)”, the % ICAM-1^D1D5 binding in assay [1] was determined as 5.4%; in assay [2] it was 1.4%; in assay [3], 2.7%; in assay [4] it was 10.9%. This substance had an equilibrium dissociation constant (Kd) in assay [5] of 51.7 nM. In assay [5], the koff was found to be 0.00153 s⁻¹. Moreover, in assay [5], the kon was found to be 29600 M⁻¹ s⁻¹.

These data come from PMC5818487.
